Our source for the binding signal (% bound values is publication PMC6854486.

The data set concerns RcGTA gp1 (small terminase TerS), MBP fusion (Rhodobacter capsulatus SB1003). The data set can be described thus: EMSA. Conditions: 25 mM HEPES pH 8.0, 50 mM K-glutamate, 1 mM DTT, 0.05% Triton X-100, 4% glycerol, 1 ug poly(dI-dC), 100 ng DNA in 10 ul, room temperature 30 min; 0.8% agarose ….

For rcc01397 flanking amplicon, the binding signal (% bound at 40 uM protein) was found to be 87. As for rcc01398 flanking amplicon (1.4 kbp), the figure is 87.
